The supplement of paper PMC6757056
± gives the standard deviation of the averaged measurements.

B1: library; a variant is named by its letters at N, in order (parent)
chain: GCUGUCACCGGUGCUUGGUACGUUAUAUUCAGCCGGUCUGAUGAGUCUNNNNNNAGACGAAACAGC

Experiments:
(6R,S)-folinic acid [1] = variants of: B1; experiment: FACS-Seq fitted mean relative fluorescence mCherry/BFP without ligand (log10 relative fluorescence); HEK293T overexpressing SLC46A1; higher = higher reporter protein expression; conditions: without (6R,S)-folinic acid; ligand present: no
Experimental: (§1)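 Hammerhead (sTRSV) ribozyme switch libraries with a ligand aptamer grafted on stem I and a randomized N4-6 loop II, cloned into the 3' UTR of mCherry and transiently transfected into HEK293T cells; RNA-Seq 72 h post transfection with ligand added 1 h before transfection; RNA read count / plasmid DNA read count normalized to the non-cleaving sTRSVctl (x100), log10; sequences with >100 DNA reads. FACS-Seq: lentiviral library sorted into 6 bins after 48 h ligand, log-normal fit mean of mCherry/BFP scaled to controls. Printed sequences are partial switch sequences.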

(6R,S)-folinic acid [2] = variants of: B1; experiment: normalized RNA/DNA level without ligand (relative to sTRSVctl = 100) (log10 (% of sTRSVctl)); HEK293T overexpressing SLC46A1; higher = less ribozyme self-cleavage, higher mRNA level; conditions: without (6R,S)-folinic acid; ligand present: no
Experimental: as §1

(6R,S)-folinic acid [3] = variants of: B1; experiment: FACS-Seq fitted mean relative fluorescence mCherry/BFP with ligand (log10 relative fluorescence); HEK293T overexpressing SLC46A1; ligand concentration (+) FACS-Seq: 6 mM; higher = higher reporter protein expression; conditions: with (6R,S)-folinic acid; ligand present: yes
Experimental: as §1

(6R,S)-folinic acid [4] = variants of: B1; experiment: normalized RNA/DNA level with ligand (relative to sTRSVctl = 100) (log10 (% of sTRSVctl)); HEK293T overexpressing SLC46A1; ligand concentration (+) RNA-Seq: 6 mM; higher = less ribozyme self-cleavage, higher mRNA level; conditions: with (6R,S)-folinic acid; ligand present: yes
Experimental: as §1

UAACGG
FACS-Seq fitted mean (log10) ((6R,S)-folinic acid [1]): 0.142 ± 0.02
normalized RNA/DNA level without ligand (log10) ((6R,S)-folinic acid [2]): 1.705 ± 0.011
FACS-Seq fitted mean (log10) ((6R,S)-folinic acid [3]): 0.534 ± 0.11
normalized RNA/DNA level with ligand (log10) ((6R,S)-folinic acid [4]): 1.95 ± 0.034

UAAAGG
FACS-Seq fitted mean (log10) ((6R,S)-folinic acid [1]): 0.0807 ± 0.018
normalized RNA/DNA level without ligand (log10) ((6R,S)-folinic acid [2]): 1.631 ± 0.0062
FACS-Seq fitted mean (log10) ((6R,S)-folinic acid [3]): 0.507 ± 0.13
normalized RNA/DNA level with ligand (log10) ((6R,S)-folinic acid [4]): 1.94 ± 0.035

UAAAGC
FACS-Seq fitted mean (log10) ((6R,S)-folinic acid [1]): 0.217 ± 0.12
normalized RNA/DNA level without ligand (log10) ((6R,S)-folinic acid [2]): 1.973 ± 0.017
FACS-Seq fitted mean (log10) ((6R,S)-folinic acid [3]): 0.319 ± 0.15
normalized RNA/DNA level with ligand (log10) ((6R,S)-folinic acid [4]): 2 ± 0.06

UAAAGU
FACS-Seq fitted mean (log10) ((6R,S)-folinic acid [1]): 0.553 ± 0.0074
normalized RNA/DNA level without ligand (log10) ((6R,S)-folinic acid [2]): 1.886 ± 0.0062
FACS-Seq fitted mean (log10) ((6R,S)-folinic acid [3]): 0.894 ± 0.26
normalized RNA/DNA level with ligand (log10) ((6R,S)-folinic acid [4]): 1.99 ± 0.045

UAAAGA
FACS-Seq fitted mean (log10) ((6R,S)-folinic acid [1]): 0.265 ± 0.1
normalized RNA/DNA level without ligand (log10) ((6R,S)-folinic acid [2]): 1.88 ± 0.019
FACS-Seq fitted mean (log10) ((6R,S)-folinic acid [3]): 0.312 ± 0.088
normalized RNA/DNA level with ligand (log10) ((6R,S)-folinic acid [4]): 1.99 ± 0.029

GAAGAA
FACS-Seq fitted mean (log10) ((6R,S)-folinic acid [1]): -0.708 ± 0.014
normalized RNA/DNA level without ligand (log10) ((6R,S)-folinic acid [2]): 1.973 ± 0.0039
FACS-Seq fitted mean (log10) ((6R,S)-folinic acid [3]): -0.827 ± 0.004
normalized RNA/DNA level with ligand (log10) ((6R,S)-folinic acid [4]): 2.03 ± 0.04

GAAGAG
FACS-Seq fitted mean (log10) ((6R,S)-folinic acid [1]): 0.0515 ± 0.088
normalized RNA/DNA level without ligand (log10) ((6R,S)-folinic acid [2]): 1.837 ± 0.0055
FACS-Seq fitted mean (log10) ((6R,S)-folinic acid [3]): 0.356 ± 0.15
normalized RNA/DNA level with ligand (log10) ((6R,S)-folinic acid [4]): 2.03 ± 0.034

GAAGAU
FACS-Seq fitted mean (log10) ((6R,S)-folinic acid [1]): 0.124 ± 0.065
normalized RNA/DNA level without ligand (log10) ((6R,S)-folinic acid [2]): 1.968 ± 0.0035
FACS-Seq fitted mean (log10) ((6R,S)-folinic acid [3]): 0.379 ± 0.13
normalized RNA/DNA level with ligand (log10) ((6R,S)-folinic acid [4]): 2.03 ± 0.032

GAAGAC
FACS-Seq fitted mean (log10) ((6R,S)-folinic acid [1]): 0.635 ± 0.035
normalized RNA/DNA level without ligand (log10) ((6R,S)-folinic acid [2]): 1.97 ± 0.0057
FACS-Seq fitted mean (log10) ((6R,S)-folinic acid [3]): 0.574 ± 0.24
normalized RNA/DNA level with ligand (log10) ((6R,S)-folinic acid [4]): 2.03 ± 0.025

UAAAAC
FACS-Seq fitted mean (log10) ((6R,S)-folinic acid [1]): 0.386 ± 0.024
normalized RNA/DNA level without ligand (log10) ((6R,S)-folinic acid [2]): 1.973 ± 0.0055
FACS-Seq fitted mean (log10) ((6R,S)-folinic acid [3]): 0.499 ± 0.15
normalized RNA/DNA level with ligand (log10) ((6R,S)-folinic acid [4]): 1.98 ± 0.028

UAAAAG
FACS-Seq fitted mean (log10) ((6R,S)-folinic acid [1]): 0.335 ± 0.03
normalized RNA/DNA level without ligand (log10) ((6R,S)-folinic acid [2]): 1.7583 ± 0.00058
FACS-Seq fitted mean (log10) ((6R,S)-folinic acid [3]): 0.493 ± 0.023
normalized RNA/DNA level with ligand (log10) ((6R,S)-folinic acid [4]): 1.96 ± 0.049

UAAAAA
FACS-Seq fitted mean (log10) ((6R,S)-folinic acid [1]): 0.254 ± 0.059
normalized RNA/DNA level without ligand (log10) ((6R,S)-folinic acid [2]): 1.9232 ± 0.0015
FACS-Seq fitted mean (log10) ((6R,S)-folinic acid [3]): 0.164 ± 0.11
normalized RNA/DNA level with ligand (log10) ((6R,S)-folinic acid [4]): 1.98 ± 0.024

UAAAAU
FACS-Seq fitted mean (log10) ((6R,S)-folinic acid [1]): 0.0871 ± 0.034
normalized RNA/DNA level without ligand (log10) ((6R,S)-folinic acid [2]): 1.941 ± 0.016
FACS-Seq fitted mean (log10) ((6R,S)-folinic acid [3]): 0.075 ± 0.078
normalized RNA/DNA level with ligand (log10) ((6R,S)-folinic acid [4]): 1.97 ± 0.036

GAAAAU
FACS-Seq fitted mean (log10) ((6R,S)-folinic acid [1]): 0.553 ± 0.091
normalized RNA/DNA level without ligand (log10) ((6R,S)-folinic acid [2]): 1.9868 ± 0.0018
FACS-Seq fitted mean (log10) ((6R,S)-folinic acid [3]): 0.647 ± 0.21
normalized RNA/DNA level with ligand (log10) ((6R,S)-folinic acid [4]): 2.02 ± 0.022

GAAAAG
FACS-Seq fitted mean (log10) ((6R,S)-folinic acid [1]): 0.162 ± 0.24
normalized RNA/DNA level without ligand (log10) ((6R,S)-folinic acid [2]): 1.94 ± 0.0028
FACS-Seq fitted mean (log10) ((6R,S)-folinic acid [3]): -0.223 ± 0.13
normalized RNA/DNA level with ligand (log10) ((6R,S)-folinic acid [4]): 2 ± 0.032

GAAAAC
FACS-Seq fitted mean (log10) ((6R,S)-folinic acid [1]): 0.181 ± 0.013
normalized RNA/DNA level without ligand (log10) ((6R,S)-folinic acid [2]): 1.948 ± 0.0025
FACS-Seq fitted mean (log10) ((6R,S)-folinic acid [3]): 0.078 ± 0.11
normalized RNA/DNA level with ligand (log10) ((6R,S)-folinic acid [4]): 1.98 ± 0.034

GAAAUA
FACS-Seq fitted mean (log10) ((6R,S)-folinic acid [1]): 0.624 ± 0.015
normalized RNA/DNA level without ligand (log10) ((6R,S)-folinic acid [2]): 2.008 ± 0.007
FACS-Seq fitted mean (log10) ((6R,S)-folinic acid [3]): 0.26 ± 0.23
normalized RNA/DNA level with ligand (log10) ((6R,S)-folinic acid [4]): 2.02 ± 0.038

GAAAUG
FACS-Seq fitted mean (log10) ((6R,S)-folinic acid [1]): 0.4312 ± 0.0042
normalized RNA/DNA level without ligand (log10) ((6R,S)-folinic acid [2]): 1.954 ± 0.012
FACS-Seq fitted mean (log10) ((6R,S)-folinic acid [3]): 0.551 ± 0.067
normalized RNA/DNA level with ligand (log10) ((6R,S)-folinic acid [4]): 2.03 ± 0.043
